In PMC8189437 (Molecular Cell, 2021):

T1: Gid1 (S. cerevisiae, UniProt P53076)
T1 sequence: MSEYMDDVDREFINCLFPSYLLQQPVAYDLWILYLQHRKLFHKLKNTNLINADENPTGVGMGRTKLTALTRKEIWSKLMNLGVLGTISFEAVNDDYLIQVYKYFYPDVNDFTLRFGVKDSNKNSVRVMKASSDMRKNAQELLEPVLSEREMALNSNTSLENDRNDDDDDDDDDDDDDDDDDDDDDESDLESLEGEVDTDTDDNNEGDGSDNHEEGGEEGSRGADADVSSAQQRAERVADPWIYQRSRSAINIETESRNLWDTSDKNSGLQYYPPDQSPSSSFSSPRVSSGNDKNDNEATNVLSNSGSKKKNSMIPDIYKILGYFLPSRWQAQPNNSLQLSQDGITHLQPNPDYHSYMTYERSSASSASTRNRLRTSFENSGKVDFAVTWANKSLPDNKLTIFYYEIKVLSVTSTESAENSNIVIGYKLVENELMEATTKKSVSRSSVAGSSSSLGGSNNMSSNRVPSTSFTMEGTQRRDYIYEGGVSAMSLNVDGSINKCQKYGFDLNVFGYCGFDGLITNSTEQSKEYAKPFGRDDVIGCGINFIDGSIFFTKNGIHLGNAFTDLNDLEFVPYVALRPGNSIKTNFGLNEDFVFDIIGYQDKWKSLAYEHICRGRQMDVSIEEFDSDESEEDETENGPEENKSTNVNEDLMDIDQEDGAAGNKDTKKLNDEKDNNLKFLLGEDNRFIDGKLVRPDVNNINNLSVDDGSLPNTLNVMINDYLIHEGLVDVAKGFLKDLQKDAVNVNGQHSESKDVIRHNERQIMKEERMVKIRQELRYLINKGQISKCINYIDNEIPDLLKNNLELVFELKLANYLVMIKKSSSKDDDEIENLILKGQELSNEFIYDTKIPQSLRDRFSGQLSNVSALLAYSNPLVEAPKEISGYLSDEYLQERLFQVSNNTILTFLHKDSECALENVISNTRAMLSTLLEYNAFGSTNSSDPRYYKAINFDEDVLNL

B1: Gid7 (natural protein)
chain: MSHTNKIAYVLNNDTEETASPSSVGCFDKKQLTKLLIHTLKELGYDSAANQLLLESGGYQNESNHIQTFFKLIKTGQFHLINWQIVCSLPLAHSSPLRSEWLQRLLIPTPTPATTSLFDHMLLQLQYLQQLMSSVNSSTCSDAEIATLRNYVEIMILVNRQIFLEFFHPVTNSASHKGPHTALPVLYLRKILKNFIEIWDSLLVSNDQFLNEENIFNPETTLRELSTYLTNPKLTAQLNLERDHLIDAISKYIDPNELVPKGRLLHLLKQAIKYQQSQDIFNIIDPDDDASFSSPPHRINLLQDNFSHDLTVTFQEWKTIQDTTDEIWFLTFSPNGKYLASATSESSRGYFITVYDVEQDFKIYKTCVSLSQSVLYLMFSPDSRYLVACPFSEDVTIYDMNATSLPDASATDSFLLYPSTRLSPMDSFKLDTTTYPDDTESSASSSSRPANANSNQSRVWCCDAFHTAERAGWMVVGSPDREAIVHSLTTKESLFSLKGRTCIALGHDENISGRKSIDPAKVLYKPTSSNGNWQYVEDDETFPRVHDVKISYDDKYVLLMTHQGVIDVYDFSGFPSKEELSKQTVDPKNFLIPRIARLDVGKNMTCISLPLNTTHQGFHRQQISESQHLVLVSLQDNELQMWDYKENILIQKYFGQKQQHFIIRSCFAYGNKLVMSGSEDGKIYIWDRIRGNLVSVLSGHSTVMSNSTKPMGKNCNVVASNPADKEMFASGGDDGKIKIWKISRN
B2: Gid8 with a C-terminal twin-Strep tag (natural protein)
chain: MTISTLSNETTKSGSCSGQGKNGGKDFTYGKKCFTKEEWKEQVAKYSAMGELYANKTIHYPLKIQPNSSGGSQDEGFATIQTTPIEPTLPRLLLNYFVSMAYEDSSIRMAKELGFIRNNKDIAVFNDLYKIKERFHIKHLIKLGRINEAMEEINSIFGLEVLEETFNATGSYTGRTDRQQQQQQQQFDIDGDLHFKLLLLNLIEMIRSHHQQENITKDSNDFILNLIQYSQNKLAIKASSSVKKMQELELAMTLLLFPLSDSADSGSIKLPKSLQNLYSISLRSKIADLVNEKLLKFIHPRIQFEISNNNSKFPDLLNSDKKIITQNFTVYNNNLVNGSNGTKITHISSDQPINEKMSSNEVTAAANSVWLNQRDGNVGTGSAATTFHNLENKNYWNQTSELLSSSNGKEKGLEFNNYYSSEFPYEPRLTQIMKLWCWCENQLHHNQIGVPRVEN

Key:
Test in all cases: cryo-EM structure
Gid7 (S. cerevisiae) = Gid7 (S. cerevisiae) (UniProt P25569)
GID^SR4 = GID^SR4 (S. cerevisiae, UniProt P53076;P40208;P40547;P38263;Q12508;P40492)
GID^SR4, sequence (P40547 whole entry, chain 3 of 4): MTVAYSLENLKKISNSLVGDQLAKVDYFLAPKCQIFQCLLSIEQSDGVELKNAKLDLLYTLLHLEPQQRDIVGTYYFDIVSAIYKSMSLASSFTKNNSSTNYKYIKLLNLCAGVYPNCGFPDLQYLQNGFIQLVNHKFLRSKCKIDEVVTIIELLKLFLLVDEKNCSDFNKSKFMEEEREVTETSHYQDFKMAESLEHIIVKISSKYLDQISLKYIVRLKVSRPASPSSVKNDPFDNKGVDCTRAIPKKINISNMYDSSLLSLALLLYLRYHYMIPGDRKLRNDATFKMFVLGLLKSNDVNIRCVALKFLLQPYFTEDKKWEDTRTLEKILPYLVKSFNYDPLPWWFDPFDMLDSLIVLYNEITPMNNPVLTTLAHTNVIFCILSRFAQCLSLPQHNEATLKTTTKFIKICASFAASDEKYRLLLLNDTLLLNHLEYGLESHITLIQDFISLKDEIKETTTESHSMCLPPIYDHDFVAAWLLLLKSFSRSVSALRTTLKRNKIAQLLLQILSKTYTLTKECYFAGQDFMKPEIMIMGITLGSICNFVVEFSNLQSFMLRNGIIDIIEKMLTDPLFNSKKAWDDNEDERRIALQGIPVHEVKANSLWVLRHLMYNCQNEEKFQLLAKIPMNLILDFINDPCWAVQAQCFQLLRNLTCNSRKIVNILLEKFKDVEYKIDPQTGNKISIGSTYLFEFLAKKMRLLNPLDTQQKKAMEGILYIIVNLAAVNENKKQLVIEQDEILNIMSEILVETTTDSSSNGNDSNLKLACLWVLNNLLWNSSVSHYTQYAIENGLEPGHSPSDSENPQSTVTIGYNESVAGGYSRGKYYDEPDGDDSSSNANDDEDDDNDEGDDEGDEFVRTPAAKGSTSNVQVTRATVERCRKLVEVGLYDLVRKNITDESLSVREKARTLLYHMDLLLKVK
GID^SR4, sequence (P38263 117-362, chain 4 of 4): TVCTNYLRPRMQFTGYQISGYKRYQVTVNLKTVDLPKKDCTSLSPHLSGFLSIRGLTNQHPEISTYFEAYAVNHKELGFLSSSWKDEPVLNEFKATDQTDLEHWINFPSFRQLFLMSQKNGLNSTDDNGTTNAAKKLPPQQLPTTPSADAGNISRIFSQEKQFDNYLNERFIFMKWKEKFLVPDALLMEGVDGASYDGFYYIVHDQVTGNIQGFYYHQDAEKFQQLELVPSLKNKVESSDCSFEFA
GID^SR4, sequence (Q12508 whole entry, chain 5 of 4): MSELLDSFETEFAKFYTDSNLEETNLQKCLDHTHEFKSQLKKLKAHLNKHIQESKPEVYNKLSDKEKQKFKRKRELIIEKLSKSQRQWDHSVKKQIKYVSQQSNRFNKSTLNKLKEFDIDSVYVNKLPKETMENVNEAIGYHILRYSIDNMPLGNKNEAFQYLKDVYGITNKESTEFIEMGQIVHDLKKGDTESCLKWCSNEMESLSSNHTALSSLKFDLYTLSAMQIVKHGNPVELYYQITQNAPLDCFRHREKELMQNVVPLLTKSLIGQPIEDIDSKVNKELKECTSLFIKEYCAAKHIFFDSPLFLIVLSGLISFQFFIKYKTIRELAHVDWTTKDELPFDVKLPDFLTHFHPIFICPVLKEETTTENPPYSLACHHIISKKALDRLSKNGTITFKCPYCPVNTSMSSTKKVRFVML
GID^SR4, sequence (P40492 whole entry, chain 6 of 4): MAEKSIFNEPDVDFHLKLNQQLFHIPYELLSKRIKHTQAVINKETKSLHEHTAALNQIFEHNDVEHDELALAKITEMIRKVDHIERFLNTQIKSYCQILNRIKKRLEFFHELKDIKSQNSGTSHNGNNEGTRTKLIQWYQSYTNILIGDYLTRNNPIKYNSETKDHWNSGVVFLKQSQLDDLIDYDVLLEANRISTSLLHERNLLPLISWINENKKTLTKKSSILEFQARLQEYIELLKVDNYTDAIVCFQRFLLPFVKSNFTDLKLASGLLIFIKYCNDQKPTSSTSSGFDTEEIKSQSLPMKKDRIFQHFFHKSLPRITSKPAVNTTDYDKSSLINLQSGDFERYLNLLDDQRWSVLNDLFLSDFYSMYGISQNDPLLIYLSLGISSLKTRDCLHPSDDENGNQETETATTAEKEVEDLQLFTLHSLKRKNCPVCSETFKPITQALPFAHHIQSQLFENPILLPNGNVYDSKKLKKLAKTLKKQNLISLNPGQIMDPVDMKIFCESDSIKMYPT

Gid1 = target: T1, Gid1
Gid7 = target: B1

Binder	stoichiometry N (Gid7 (S. cerevisiae))	binding result (GID^SR4)	binding result (Gid1)	binding result (Gid7)
B1	2	binds	binds	–
B2	–	–	–	binds
